Results from the supplement of paper PMC10126150.
± gives the standard deviation of the averaged measurements.

Test system: ATP
Assay: switch fluorescence ratio, 500 uM ATP over buffer (Cy3 cluster intensity, sum of 5 cycles each) (fold (ratio)); higher = stronger signal-on switching upon ATP binding; sequences stand for … in TCGTCGGCAGCGTCAGATGTGTATAAGAGACAGTTTTTTTTTTTTTTTTTTTTTTTTT…TC
Conditions: aptamer strand: ATP DNA aptamer (quencher-CACCTGGGGGAGTATTGCGGAGGAAGG + anchor), 100 nM annealed; ATP concentration: 500 uM
How it was run: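 Cy3-labelled switching-strand clusters on a modified Illumina MiSeq flow-cell were annealed to 100 nM quencher-labelled ATP aptamer and imaged first in selection buffer, then after 15 min with 500 uM ATP at 22 °C. NaOH stripping and re-annealing separated each of five buffer/ATP cycles, and clusters outside 100-1000 RFU were excluded. The fluorescence ratio sums target-cycle Cy3 intensity over buffer-cycle Cy3 intensity per cluster and averages it per switch-domain sequence.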
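Further: ATP exposure 15 min at 22 °C before imaging.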

| Sequence | switch fluorescence ratio |
| --- | --- |
| CGTAGAGGGG | 0.9858 ± 0.0073 |
| CGTAGCGTTT | 0.998 ± 0.04 |
| CGTAGGAGGA | 0.98 ± 0.036 |
| CGTAGGGGAA | 0.993 ± 0.02 |
| CGTAGGGTCA | 0.9871 ± 0.0082 |
| CGTAGGGTTA | 1.01 ± 0.025 |
| CGTAGGTAAT | 1.01 ± 0.04 |
| CGTAGTACGC | 1.12 ± 0.04 |
| CGTAGTTTAG | 1.05 ± 0.027 |
| CGTAGTTTAT | 1.07 ± 0.022 |
| CGTAGTTTTG | 1.007 ± 0.0074 |
| CGTATAAAAA | 0.971 ± 0.068 |
| CGTATAGGGA | 1.015 ± 0.01 |
| CGTATAGGTC | 0.999 ± 0.033 |
| CGTATATGGG | 0.995 ± 0.022 |
| CGTATCATGC | 0.985 ± 0.011 |
| CGTATCCCGT | 0.974 ± 0.014 |
| CGTATGAAGC | 0.972 ± 0.02 |
| CGTATGCAAG | 0.967 ± 0.041 |
| CGTATGTGGT | 0.97 ± 0.019 |
| CGTATTCTGT | 0.9845 ± 0.0037 |
| CGTATTGCGC | 0.971 ± 0.038 |
| CGTATTTTAC | 1.08 ± 0.038 |

| Sequence | switch fluorescence ratio |
| --- | --- |
| CGTATTTTGC | 1.03 ± 0.066 |
| CGTCAGCGGC | 1.25 ± 0.053 |
| CGTCAGGCAT | 1.17 ± 0.026 |
| CGTCATCAGG | 1.042 ± 0.0069 |
| CGTCATGTCT | 1 ± 0.065 |
| CGTCATTGGG | 0.992 ± 0.045 |
| CGTCCCAGCT | 1.12 ± 0.018 |
| CGTCCGAGGT | 1.3 ± 0.048 |
| CGTCCTGGGC | 1.0441 ± 0.00044 |
| CGTCGCGGCA | 0.989 ± 0.026 |
| CGTCGGGTGG | 0.9882 ± 0.0028 |
| CGTCGTACGC | 0.981 ± 0.13 |
| CGTCGTTCTC | 1.02 ± 0.07 |
| CGTCTAAGTC | 1.01 ± 0.046 |
| CGTCTAAGTG | 0.99 ± 0.019 |
| CGTCTACATG | 1.03 ± 0.027 |
| CGTCTATGGG | 1 ± 0.014 |
| CGTCTGCGCG | 0.972 ± 0.081 |
| CGTCTGGCGG | 1.01 ± 0.021 |
| CGTCTTAGGG | 0.966 ± 0.016 |
| CGTCTTTAGA | 0.987 ± 0.01 |
| CGTGAAAGG | 0.9546 ± 0.0042 |
| CGTGAATTTG | 0.987 ± 0.026 |

| Sequence | switch fluorescence ratio |
| --- | --- |
| CGTGACCAGG | 1.14 ± 0.029 |
| CGTGACGGGG | 0.978 ± 0.043 |
| CGTGAGTTGG | 0.992 ± 0.014 |
| CGTGATCAGA | 0.996 ± 0.039 |
| CGTGATGAGG | 0.989 ± 0.028 |
| CGTGATTGCT | 1.03 ± 0.074 |
| CGTGATTTTT | 1 ± 0.041 |
| CGTGCAGCGG | 1 ± 0.014 |
| CGTGCAGGGG | 1.057 ± 0.0013 |
| CGTGCGGCGT | 0.9829 ± 0.0026 |
| CGTGCTGGGA | 1.03 ± 0.033 |
| CGTGCTTGTA | 1.01 ± 0.025 |
| CGTGCTTTCT | 0.999 ± 0.029 |
| CGTGGAGTGG | 0.996 ± 0.029 |
| CGTGGATGCG | 1.025 ± 0.0038 |
| CGTGGATGGT | 0.9933 ± 0.0032 |
| CGTGGATTTT | 0.972 ± 0.034 |
| CGTGGCCGTT | 0.978 ± 0.095 |
| CGTGGCCTGG | 0.994 ± 0.024 |
| CGTGGCGCGG | 0.9942 ± 0.0096 |
| CGTGGCTAAG | 0.971 ± 0.046 |
| CGTGGGAATA | 0.9992 ± 0.0082 |
| CGTGGGAGAA | 1.09 ± 0.084 |

| Sequence | switch fluorescence ratio |
| --- | --- |
| CGTGGGAGGG | 0.99 ± 0.011 |
| CGTGGGGACT | 0.991 ± 0.027 |
| CGTGGGGCGA | 1.03 ± 0.025 |
| CGTGGGGGTA | 0.996 ± 0.025 |
| CGTGGGTAGA | 1.06 ± 0.09 |
| CGTGGTGGGG | 0.992 ± 0.015 |
| CGTGGTTATG | 0.975 ± 0.06 |
| CGTGTAAATA | 0.995 ± 0.015 |
| CGTGTAAGAT | 1.03 ± 0.047 |
| CGTGTAATTC | 1.03 ± 0.1 |
| CGTGTACCGG | 1.01 ± 0.0092 |
| CGTGTAGGGG | 1.03 ± 0.017 |
| CGTGTAGTCC | 1.1 ± 0.086 |
| CGTGTGAGAG | 0.986 ± 0.021 |
| CGTGTGGTTC | 1.02 ± 0.036 |
| CGTGTGTACC | 1.007 ± 0.0049 |
| CGTGTGTGTA | 1.07 ± 0.05 |
| CGTGTGTTGC | 1 ± 0.024 |
| CGTGTTTGCG | 0.985 ± 0.031 |
| CGTGTTTTTG | 0.986 ± 0.02 |
| CGTTAAAGAT | 1.03 ± 0.023 |
| CGTTAAGGCT | 0.973 ± 0.015 |
| CGTTAAGTTC | 0.993 ± 0.029 |

| Sequence | switch fluorescence ratio |
| --- | --- |
| CGTTAATTCG | 1 ± 0.028 |
| CGTTACAGGT | 1.04 ± 0.028 |
| CGTTACTTAG | 1.02 ± 0.011 |
| CGTTACTTTT | 1.02 ± 0.053 |
| CGTTAGTTTT | 0.9924 ± 0.0021 |
| CGTTATAAAG | 0.9811 ± 0.0012 |
| CGTTATACTG | 1.07 ± 0.027 |
| CGTTATAGTC | 1.02 ± 0.047 |
| CGTTATCGTC | 0.99 ± 0.0099 |
| CGTTCATTAG | 1.003 ± 0.0076 |
| CGTTCTAGTT | 1.001 ± 0.01 |
| CGTTCTATGT | 1.01 ± 0.02 |
| CGTTCTCCCC | 1.03 ± 0.068 |
| CGTTCTGGAG | 1.2 ± 0.038 |
| CGTTGAAAGT | 0.991 ± 0.015 |
| CGTTGATAAG | 0.997 ± 0.022 |
| CGTTGATCAG | 0.976 ± 0.024 |
| CGTTGATGGT | 0.992 ± 0.02 |
| CGTTGCATTG | 1.03 ± 0.017 |
| CGTTGCTGAT | 0.972 ± 0.035 |
| CGTTGGAATA | 1.01 ± 0.042 |
| CGTTGGAATG | 0.981 ± 0.015 |
| CGTTGGCCGT | 1.03 ± 0.085 |

| Sequence | switch fluorescence ratio |
| --- | --- |
| CGTTGGGACG | 1.0042 ± 0.00087 |
| CGTTGGGAGG | 0.979 ± 0.016 |
| CGTTGGGGCA | 1 ± 0.077 |
| CGTTGGGGCG | 0.931 ± 0.035 |
| CGTTGGGGTG | 1.03 ± 0.063 |
| CGTTGGGTTC | 0.969 ± 0.013 |
| CGTTGTGGCA | 1 ± 0.028 |
| CGTTGTGTAG | 1.02 ± 0.013 |
| CGTTGTTCGT | 1 ± 0.0015 |
| CGTTGTTGTA | 1.01 ± 0.02 |
| CGTTGTTTTG | 0.9848 ± 0.0091 |
| CGTTTAATGG | 0.984 ± 0.0086 |
| CGTTTACGCC | 1 ± 0.046 |
| CGTTTAGTGG | 0.9781 ± 0.0089 |
| CGTTTATTG | 0.9967 ± 0.0085 |
| CGTTTCGCAG | 1.03 ± 0.068 |
| CGTTTCTAAG | 0.967 ± 0.03 |
| CGTTTCTTTT | 0.997 ± 0.02 |
| CGTTTGGTAG | 0.964 ± 0.019 |
| CGTTTGTACT | 1.022 ± 0.0013 |
| CGTTTGTGCA | 0.98971 ± 6.6e-05 |
| CGTTTGTGTG | 1.01 ± 0.011 |
| CGTTTTCCAG | 0.985 ± 0.03 |

| Sequence | switch fluorescence ratio |
| --- | --- |
| CGTTTTGCGG | 1.04 ± 0.052 |
| CGTTTTGGTT | 0.976 ± 0.021 |
| CGTTTTTTGT | 0.9843 ± 0.002 |
| CTAAAATGCT | 1.042 ± 0.0088 |
| CTAAACGTCA | 1.1 ± 0.051 |
| CTAAAGTGGG | 0.973 ± 0.015 |
| CTAAATTTTA | 0.989 ± 0.019 |
| CTAACAGCGA | 1.297 ± 0.0027 |
| CTAACCATCT | 1.028 ± 0.0038 |
| CTAACGAGGG | 0.9731 ± 0.0043 |
| CTAACGGTTT | 0.976 ± 0.028 |
| CTAACTAAGG | 1.015 ± 0.0095 |
| CTAAGATAGG | 1.01 ± 0.029 |
| CTAAGGAGGG | 0.989 ± 0.021 |
| CTAAGTCGAG | 0.966 ± 0.037 |
| CTAAGTTCTT | 0.987 ± 0.008 |
| CTAATAATCG | 1 ± 0.015 |
| CTAATATCAC | 1.02 ± 0.012 |
| CTAATATTAG | 1 ± 0.086 |
